Experimental data: US20190271021A1

Biological target: human TrkB on CHO cells (CHO-K1-hTrkB/pSRE-Luc) (human) (UniProt Q16620)
Assay: cell-based or functional assay

human TrkB on CHO cells (CHO-K1-hTrkB/pSRE-Luc) (human), sequence (Q16620 32-822): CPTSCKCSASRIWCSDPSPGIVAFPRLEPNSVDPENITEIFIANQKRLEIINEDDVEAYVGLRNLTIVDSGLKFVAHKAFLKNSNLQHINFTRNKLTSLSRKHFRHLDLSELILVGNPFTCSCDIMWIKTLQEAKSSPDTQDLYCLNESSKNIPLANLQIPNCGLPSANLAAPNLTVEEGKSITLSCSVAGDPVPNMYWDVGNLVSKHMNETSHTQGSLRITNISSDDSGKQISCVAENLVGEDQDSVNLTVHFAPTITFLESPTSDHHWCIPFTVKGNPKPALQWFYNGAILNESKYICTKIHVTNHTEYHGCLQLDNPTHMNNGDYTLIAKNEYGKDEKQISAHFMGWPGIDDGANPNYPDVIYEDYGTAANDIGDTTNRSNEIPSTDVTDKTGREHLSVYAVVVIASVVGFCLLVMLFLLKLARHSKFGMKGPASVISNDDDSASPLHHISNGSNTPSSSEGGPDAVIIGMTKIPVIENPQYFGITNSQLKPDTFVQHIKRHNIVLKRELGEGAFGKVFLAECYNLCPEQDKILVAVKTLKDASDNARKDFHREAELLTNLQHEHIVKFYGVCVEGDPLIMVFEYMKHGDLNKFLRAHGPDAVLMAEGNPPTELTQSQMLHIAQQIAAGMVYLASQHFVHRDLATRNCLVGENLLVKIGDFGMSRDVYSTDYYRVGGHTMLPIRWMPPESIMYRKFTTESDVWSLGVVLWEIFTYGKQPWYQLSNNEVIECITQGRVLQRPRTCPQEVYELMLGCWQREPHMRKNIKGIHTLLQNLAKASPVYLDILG

relative BDNF activity in TrkB luciferase assay, EC50 [%]	BDNF activity in TrkBluciferase assay, EC50 [% or nM]	Substance
60%	–	complex of pre-pro(IgA)-BDNF(-RGR)_opsin(L)-(G3D)4-G3S_VH<TfR>8D3-CH1-His6, anti-transferrin receptor antibody light chain and not-fused pre-pro(IgA)-BDNF(-RGR)-opsin(L)-T7-His6
80%	–	complex of pre-pro(IgA)-BDNF(-RGR)_opsin(L)-(G3D)4-G3S_VH<TfR>8D3-CH1-His6, anti-transferrin receptor antibody light chain and not-fused pre-pro(IgA)-BDNF(-RGR; R81N)-His6 (from UniProt P23560 1-244)
110%	–	complex of pre-pro(IgA)-BDNF(-RGR; R81N)_opsin(L)-(G3D)4-G3S_VH<TfR>8D3-CH1-His6, anti-transferrin receptor antibody light chain and not-fused pre-pro(IgA)-BDNF(-RGR; R81N)-His6 (from UniProt P23560 1-244)
200%	–	pre-pro(IgA)-BDNF(-RGR)_opsin(L)-(G3D)4-G3S_VH<TfR>8D3-CH1-His6 with chimeric rat/human anti-transferrin receptor antibody light chain
–	2830%	pre-pro-BDNF(-RGR; K25N; T35N; Q79T)-T7-His6 (ligand)
